Test results as given in patent US20090226429A1 (Human Genome Sciences, published 2009).
Positions count from the first letter of the chain named.

T1: TR10 (human, UniProt Q9UBN6 56-204, limits assumed)
T1 construct: Antigen coated in the specificity phage ELISA; also called TRAIL-R4; DcR2
T1 sequence: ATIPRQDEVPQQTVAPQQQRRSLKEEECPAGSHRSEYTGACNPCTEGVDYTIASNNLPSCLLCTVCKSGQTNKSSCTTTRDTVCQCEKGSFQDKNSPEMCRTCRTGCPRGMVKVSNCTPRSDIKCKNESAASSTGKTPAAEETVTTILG

T2: TR5 (human, UniProt O14798 30-242)
T2 construct: Antigen coated in the specificity phage ELISA; also called TRAIL-R3; DcR1
T2 chain: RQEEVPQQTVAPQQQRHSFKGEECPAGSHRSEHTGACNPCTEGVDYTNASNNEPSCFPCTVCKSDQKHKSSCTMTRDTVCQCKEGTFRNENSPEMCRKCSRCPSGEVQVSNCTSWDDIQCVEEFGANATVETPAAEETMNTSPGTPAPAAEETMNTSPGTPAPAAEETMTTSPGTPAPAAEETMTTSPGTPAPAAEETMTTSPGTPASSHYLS

T3: TR4:Fc receptor (human, UniProt O00220 109-240)
T3 construct: also called TR4-Fc fusion protein; not shown: Fc region
T3 chain: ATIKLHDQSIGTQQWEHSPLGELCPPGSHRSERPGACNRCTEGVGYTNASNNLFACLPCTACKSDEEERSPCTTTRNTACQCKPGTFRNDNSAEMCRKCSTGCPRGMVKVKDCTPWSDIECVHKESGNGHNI

B1: scFv T1014G03 (scFv)
scFv: EVQLVQSGAEVKMPGASVKLSCRVSGDTFTAYFIHWVRQAPGQGLEWMGWFNPISGTAGSAEKFRGRVAMTRDTSISTAYMELNRLTFDDTAVYYCARQHRGNTFDPWGQGTLVTVSSGGGGSGGGGSGGGGSAQSALTQPASVSGSPGQSITISCTGTSSDIGAYKYVSWYQQHPGKAPKLVIYEVSNRPSGVSSRFSGSKSGQTASLTISGLQADDEADYYCNSYQGYNTWVFGGGTKVTVLG
B2: scFv T1014A04 (scFv)
scFv: EVQLVQSGADVKRPGASVKVSCKISGDSFNAYFIHWVRQAPGQGLEWMGWFNPDSGTADSAQKFHGRVTMTRDTSSSTAFLELSRLRSDDTAVYYCVRQHRGNTFAPWGRGTMVTVSSGGGGSGGGGSGGGGSAQSVLTQPPSASGSPGQSVTISCTGTTSDVGGYNYVSWYQQHPGKAPKLMIYGVNQRPSGVPDRFSGSKSGNTASLTVSGLQAEDEADYYCSSYAGSNNWVFGGGTKLTVLG
B3: scFv T1014G04 (scFv)
scFv: EVQLVQSGADVKRPGASVKVSCKISGDSFTAYFIHWVRQAPGQGLEWMGWFNPDSGTADSAQKFHGRVTMTRDTSSSTAFLELSRLRSDDTAVYYCVRQHRGNTFAPWGRGTLVTVSSGGGGSGGGGSGGGGSAQPVLTQPPSASGSPGQSVTISCTGTSSDVGSYEYVSWYQQHPGKAPRLMISEVNKRPSGVPNRFSGSKSGNTASLTVSGLQADDEADYYCSSYAGSNNWVFGGGTKVTVLG
B4: scFv T1014F08 (scFv)
scFv: EVQLVQSGAEVKKPGASVKLSCRVSGDTFTAYFIHWVRQAPGQGPEWMGWFNPISGTAGSAARFRGRVAMTRDTSISTAYMELNRLTFDDTAVYYCARQHRGNTFDPWGKGTLVTVSSGGGGSGGGGSGGGGSALPVLTQPPSASGSPGQSVTISCTGTSSDVGGYKYVSWYQQHPGKAPKLMIYEVSMRPSGVPDRFSGSKSGNTASLTVSGLQAEDEADYYCASYAGSNNWVFGGGTKLTVLG
B5: scFv T1014B11 (scFv)
scFv: EVQLVQSGAEVKKPGASVKVSCKISGDSFTAYFIHWLRQAPGEGLEWMGWFNPISGTAGSPQKFHGRVAMTRDTSISTAYMELTRLASDDTAIYYCARQHHSNTFDPWGQGTLVTVSSGGGGSGGGGSGGGGSAQSALTQPASVSGSPGQSITISCTGTNSDVGGYNYVSWYQQHPGKAPKLMIYEVNNRPSGVSNRFSGSKSGNTASLTISGLQADDEADYYCSSYTTSNTWVFGGGTKLTVLG
B6: IgG1 antibody comprising the VH and VL domains of the T1014A04 scFv (antibody, V domains shown)
VH: EVQLVQSGADVKRPGASVKVSCKISGDSFNAYFIHWVRQAPGQGLEWMGWFNPDSGTADSAQKFHGRVTMTRDTSSSTAFLELSRLRSDDTAVYYCVRQHRGNTFAPWGRGTMVTVSS
VL: QSVLTQPPSASGSPGQSVTISCTGTTSDVGGYNYVSWYQQHPGKAPKLMIYGVNQRPSGVPDRFSGSKSGNTASLTVSGLQAEDEADYYCSSYAGSNNWVFGGGTKLTVLG
notes: Whole IgG1; also called IgG1 format of T1014A04
B7: IgG1 antibody comprising the VH and VL domains of the T1014G03 scFv (antibody, V domains shown)
VH: EVQLVQSGAEVKMPGASVKLSCRVSGDTFTAYFIHWVRQAPGQGLEWMGWFNPISGTAGSAEKFRGRVAMTRDTSISTAYMELNRLTFDDTAVYYCARQHRGNTFDPWGQGTLVTVSS
VL: QSALTQPASVSGSPGQSITISCTGTSSDIGAYKYVSWYQQHPGKAPKLVIYEVSNRPSGVSSRFSGSKSGQTASLTISGLQADDEADYYCNSYQGYNTWVFGGGTKVTVLG
notes: Whole IgG1
B8: IgG1 antibody comprising the VH and VL domains of the T1014G04 scFv (antibody, V domains shown)
VH: B6 VH with N30T, M113L
VL: QPVLTQPPSASGSPGQSVTISCTGTSSDVGSYEYVSWYQQHPGKAPRLMISEVNKRPSGVPNRFSGSKSGNTASLTVSGLQADDEADYYCSSYAGSNNWVFGGGTKVTVLG
notes: Whole IgG1; also called T14G04

Biological target: T4, TR7 (human, UniProt O14763 52-184, limits assumed)
T4 construct: Antigen coated in the specificity phage ELISA; also called TRAIL-R2; DR5
Assay: specificity phage ELISA, antigen coated at 1 ug/ml
Method: (§1) Flexible 96-well plates (Falcon) were coated overnight at 4° C. with each antigen (1 μg/ml). All antigens were coated in PBS. After coating, the solutions were removed from the wells, and the plates were blocked for 1 hour at room temperature in MPBS. The plates were washed 3 times with PBS and then 50 μl of pre-blocked phage was added to each well. The plates were incubated at room temperature for 1 hour and then washed with 3 changes of PBST followed by 3 changes of PBS.
(§2) To each well, 50 μl of an anti-M13-HRP conjugate (Pharmacia) at a 1 in 5000 dilution in MPBS was added and the plates incubated at room temperature for 1 hour. Each plate was washed three times with PBST followed by three times with PBS.
(§3) Fifty μl of TMB substrate was then added to each well, and incubated at room temperature for 30 minutes or until colour development. The reaction was stopped by the addition of 25 μl of 0.5 M H₂SO₄. The signal generated was measured by reading the absorbance at 450 nm (A₄₅₀) using a microtitre plate reader (Bio-Rad 3550).

Row | Binder | binding result
1 | B1 | no binding
2 | B2 | no binding
3 | B3 | no binding
4 | B4 | no binding
5 | B5 | no binding

Biological target: T5, BLyS (human, UniProt Q9Y275 134-285, limits assumed)
T5 construct: Unrelated control antigen in the specificity phage ELISA
T5 sequence (Q9Y275 134-285 limits assumed): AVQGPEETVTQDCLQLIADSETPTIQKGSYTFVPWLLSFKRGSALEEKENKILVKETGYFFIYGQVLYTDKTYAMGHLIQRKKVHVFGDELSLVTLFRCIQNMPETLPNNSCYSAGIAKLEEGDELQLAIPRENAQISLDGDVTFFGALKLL
Assay: specificity phage ELISA, antigen coated at 1 ug/ml
Method: as §1, §2, §3

Row | Binder | binding result
6 | B1 | no binding
7 | B2 | no binding
8 | B3 | no binding
9 | B4 | no binding
10 | B5 | no binding

Biological target: T1, TR10
Assay: specificity phage ELISA, antigen coated at 1 ug/ml
Method: as §1, §2, §3

Row | Binder | binding result
11 | B1 | no binding
12 | B2 | no binding
13 | B3 | no binding
14 | B4 | no binding
15 | B5 | no binding

Biological target: T2, TR5
Assay: specificity phage ELISA, antigen coated at 1 ug/ml
Method: as §1, §2, §3

Row | Binder | binding result
16 | B1 | no binding
17 | B2 | no binding
18 | B3 | no binding
19 | B4 | no binding
20 | B5 | no binding

Biological target: T3, TR4:Fc receptor
Assay: SPR (BIAcore 2000), TR4:Fc amine-coupled on CM5 chip, IgG1 as analyte, double reference subtraction, 1:1 Langmuir fit, 25 C
Method: The optimal pH for this coupling was analyzed using preconcentration experiments ranging from pH 4-7 and was determined to be pH 4.0 for both the TR4 and the TR2 receptor. Amine coupling was used to covalently bind each receptor (fc) to the dextran matrix on the CM5 sensor chip. The immobilization experiment was performed using the manual injection mode. The entire immobilization experiment was performed at 5 μL/min. A 3-minute injection of EDC/NHS (1:1) was applied to each flow cell to active esters. A target level of ˜200RU was set as the goal for all each flow cell. Fc-fusion receptors, TR4 and TR2 at 5 μg/mL, were immobilized onto individual flow cells of a sensor chip. The amount applied varied from 8-14 μL. A 3-minute ethanolamine injection completed the immobilization experiment by inactivating the esters.
The kinetics cycles were performed as follows: The flow rate for the entire cycle was 25 μL/minute with the flow path including both the control (TR2) and experimental (TR4) flow cell at all times. A 1-minute buffer injection was applied to stabilize the baseline. The purified antibody (IgG1 antibody comprising the VH and VL domains of each of the T1014A04, T1014G03, T1014F08, and T14G04 scFvs) was diluted from 10 μg/mL (65 nM) to 0.115 μg/mL (0.75 nM) in running buffer and tested in duplicate. Each concentration was in contact with the control (TR2) and the experimental (TR4) flow cell during a 4-minute association and a 10-minute dissociation phase. Regeneration was performed using 25 mM NaOH from 5-12 μL depending on the sample concentration.
A double-reference subtraction was performed, which refers to the control flow cell subtraction for every cycle, in addition to a buffer cycle subtraction. The 1:1 Langmuir model was used for all evaluation fitting.

Row | Binder | Kd [nM]
21 | B6 | 0.468
22 | B7 | 0.554
23 | B8 | 0.194
